Experiment [1] has as its target T1, His-tagged YAP purified from Escherichia coli (human, UniProt P46937 1-504).
T1 construct: YAP, recombinant; Labelled with RED-tris-NTA 2nd Generation dye where it was the labelled partner; also called YAP protein; source: Escherichia coli, purified
Briefly: MST; His-tagged YAP labelled with 25 nM RED-tris-NTA 2nd Generation dye, SOX9 peptide serially diluted; 50 mM Tris-HCl pH 7.4, 150 mM NaCl, 0.05% Tween-20; room temperature; 40% LED power, medium MST power. As to conditions: both partners purified.

Experiment [2] deals with T1, His-tagged YAP purified from …. Briefly: MST; SOX9-HMG (aa 98–181) with YAP protein; which of the two was labelled is not told; 50 mM Tris-HCl pH 7.4, 150 mM NaCl, 0.05% Tween-20; room temperature. The conditions noted are these: both partners purified.

T1 sequence (P46937 whole entry): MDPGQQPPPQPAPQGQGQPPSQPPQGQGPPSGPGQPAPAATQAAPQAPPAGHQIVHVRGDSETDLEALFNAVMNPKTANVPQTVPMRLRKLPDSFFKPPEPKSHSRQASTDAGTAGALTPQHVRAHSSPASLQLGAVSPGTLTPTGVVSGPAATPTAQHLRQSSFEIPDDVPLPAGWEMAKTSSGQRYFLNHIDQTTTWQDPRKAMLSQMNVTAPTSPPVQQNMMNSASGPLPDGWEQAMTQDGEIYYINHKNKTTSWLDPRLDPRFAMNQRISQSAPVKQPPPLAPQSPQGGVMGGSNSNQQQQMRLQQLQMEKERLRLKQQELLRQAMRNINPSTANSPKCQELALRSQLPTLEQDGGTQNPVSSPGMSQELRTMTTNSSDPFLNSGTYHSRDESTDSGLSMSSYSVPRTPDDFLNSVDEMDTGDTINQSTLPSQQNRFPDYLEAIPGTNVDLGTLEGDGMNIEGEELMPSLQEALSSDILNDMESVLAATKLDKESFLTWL

A word on the Kd: it is the equilibrium constant for the complex coming apart. Higher therefore signals lower affinity. RVNGSSKNKPHVKRPMNAFMVWAQAARRKLADQ (peptide, UniProt P48436 94-126, looked up) [nNLS-containing fragment of SOX9 (aa 94–126)]: in experiment [1], the Kd was 1100 nM.

The molecule AFMVWAQAARRKLADQ (peptide, UniProt P48436 111-126, looked up) [peptide S-A1 (SOX9 amino acids 111–126)] had a Kd in experiment [1] of 2200 nM. Compared with the last molecule, the Kd is about 2-fold higher.

B1: SOX9-HMG domain (aa 98–181) (domain or fragment)
chain: not shown
notes: SOX9 HMG domain, residues 98-181; The limits 98-181 are printed for the MST with YAP protein; source: Escherichia coli, purified
B1 gave a Kd in experiment [2] of 540 nM.
